The results in this text go back to patent US20070167369A1, “Novel use of isolated polypeptide comprising four FAS-1 domains, EM1 domain and RGD motif” (KYUNGPOOK NATIONAL UNIVERSITY INDUSTRY-ACADEMIC COOPERATION …, priority 2004, published 2007).

Test [1] relates to HUVEC. The experiment in a line: Adhesion of endothelial cells to vitronectin (Example 13-1). The test is classed as cell-based, human. The protocol: Flat-bottomed 96-well ELISA plates (Costar, Corning, Inc., NY) were incubated overnight at 4° C. with 5 μg/ml of vitronectin (Promega, Madison, Wis.) and blocked for 1 hour at room temperature with PBS containing 2% bovine serum albumin (BSA).
Primary human umbilical vein endothelial cells (HUVEC) were cultured at 37° C. in 5% CO2 in M199 medium supplemented with 20% fetal bovine serum. For all the experiments, HUVECs were used at passage 4 or less. HUVEC cells were suspended in medium at a density of 3×10^5 cells/ml, and 0.1 ml of the cell suspension was pre-incubated with or without the indicated concentration of the truncated βig-h3, the fas-1 domain and Regenin for 40 min at 37° C., then added to each well of the coated. After incubation for 5 to 10 minutes at 37° C., unattached cells were removed by rinsing with PBS. Attached cells were then incubated for 1 hour at 37° C. in 50 mM citrated buffer (pH 5.0) containing 3.75 mM p-nitrophenyl-N-acetyl-Dglycosamide and 0.25% Triton X-100. Enzyme activity was blocked by adding 50 mM glycine buffer (pH 10.4) containing 5 mM EDTA, and the absorbance was measured at 405 nm in a Bio-Rad model 550 microplate reader.

In test [2] the test system is caspase-3. Put plainly: Caspase-3 activity in HUVECs (Example 7-2). Type of test: cell-based, human. To be noted: control (PBS) at 24 hours about 250 AU. The protocol: With respect to the induction of endothelial cell apoptosis (active cell death) by the fas-1 domain, which had been confirmed in Example 7-1 above, the present inventors measured the activity of caspase-3, which is activated when apoptosis occurs, in the cells treated with the fas-1 domain.
HUVECs were spread onto a 100-mm plate (10 ml culture solution) with M199 medium containing 10% FBS, followed by incubation in a 37° C. incubator for 12 hours. After the incubation, the medium was removed from the plate, the cells were added with fresh medium containing 0.1% FBS and further incubated for 24 hours. The cell-containing medium was treated with 5 μM or 20 μM of the fas-1 domain (βig-h3 D-IV) prepared in Example 1. A control was treated with PBS buffer. At 12 hours and 24 hours after the treatment, the cells were harvested. The caspase-3 activity of the cells was measured with an EnzCheck Caspase-3 Assay Kit(#2) (Molecular Probe Co., Eugene, Oreg., USA). Moreover, to verify that measured values are attributed to caspase-3 activity, each of the samples was treated with DEVD-CHO (Molecular Probe Co., Eugene, Oreg., USA) as a caspase-3-specific inhibitor. The control was treated with DMSO.

The test system of test [3] is HUVECs. The experiment in a line: Endothelial cell proliferation, MTT (Example 6). Type of test: cell-based, human. As to conditions: 48 hours. The protocol: HUVECs were suspended in medium at a density of 3×10^4 cells/ml, and 0.1 ml of the cell suspension was added to each well of 96-well plate and incubated at 37° C. overnight. The cells were washed with PBS buffer, and then incubated at 37° C. for 24 hours in serum-free medium. Thereafter, 0.2% FBS-containing medium containing the indicated concentrations of the fas-1 domain (βig-h3 D-IV) prepared in Example 1 was added to each well of the plate and incubated at 37° C. for 48 hours. A control was added with 2% BSA instead of the fas-1 domain. 50 μl of 0.5 mg/ml thiazolyl blue (MTT; Sigma) solution was added to each well, and allowed to react at 37° C. for 4 hours. After the reaction, the medium was removed, and each well was added with DMSO and left to stand at room temperature for a few minutes. Thereafter, the absorbance was measured at 570 nm in a Bio-Rad model 550 microplate reader.

The test system of test [4] is HUVECs. Put plainly: Endothelial tube formation in Matrigel (Example 14). To be noted: for 70%-inhibition of tube formation observed at: concentration giving 70% inhibition; for inhibition of tube formation: various concentrations, 6 to 10 hours. The test is classed as cell-based, human. The protocol: Matrigel (Chemicon, International Inc, Temecula, Calif.) was added (100 μl) into each well of a 96-well plate and polymerized for 30 minutes at 37° C. HUVECs were suspended in medium at a density of 3×10^5 cells/ml, and 0.1 ml of the cell suspension was pre-incubated with or without the indicated concentration of the truncated βig-h3, the fas-1 domain and Regenin for 40 min at 37° C., then seeded on the surface of the Matrigel. Cells were incubated for 6 to 10 hours at 37° C. The cells were then photographed, and branch points from 4 high-power fields (x200) were counted and averaged.

In test [5] the test system is HUVECs. The experiment in a line: Migration of endothelial cells to vitronectin, transwell (Example 13-2). Type of test: cell-based, human. To be noted: for IC50: read-out: half-inhibition of migration toward vitronectin observed at; for inhibition of migration to vitronectin: various concentrations, 4 to 6 hours. The protocol:
Cell migration assays were done in transwell plates (8 μm pore size, Costar, Cambridge, Mass.). The undersurface of the membrane was coated with 5 μg/ml of vitronectin at 4° C. and blocked for 1 hour at room temperature with PBS containing 2% BSA. HUVECs were suspended in medium at a density of 3×10^5 cells/ml, and 0.1 ml of the cell suspension was pre-incubated with or without the indicated concentration of the truncated βig-h3, the fas-1 domain and Regenin for 40 min at 37° C., then added to the upper compartment of the filter. Cells were allowed to migrate for 4 to 6 hours at 37° C. The filters were fixed with 8% glutaraldehyde and stained with crystal violet, and non-migrating cells on the upper surface of the filter were removed by wiping with a cotton swab. The extent of cell migration was determined by light microscopy, and within each well, counting was done in nine randomly selected microscopic high power fields (x200).

In test [6] the test system is Murine melanoma cells (B16F10) tumor. The experiment in a line: B16F10 tumor growth in BALB/c nude mice (Example 15-1). To be noted: for tumor growth inhibition compared with control: i.p. everyday from 7 days after inoculation. The test is classed as in vivo. The protocol: Murine melanoma cells (B16F10) were cultured in RPMI 1640 containing 25 mM/L HEPES with 10% fetal bovine serum. Male BALB/c nude mice (5-6 weeks old) were implanted with 1×10^6 B16F10 cells into the flank subcutis and monitored tumor growth and neovascularization after systemic treatment with exogenous fas-1 domain (5 μM) or truncated βig-h3 (50 nM or 10 nM). Experimental groups were i.p. injected everyday from 7 days after tumor cell inoculation with the indicated concentration of fas-1 domain or truncated βig-h3 in a total volume of 0.1 ml PBS. The control group was given an equal volume of PBS each day. Each experimental group consisted of six to eight mice. Tumor sizes were measured using Vernier calipers every 2 to 3 days, and the measured values were substituted in the following equation (2) to calculate the volumes of the tumor. Volume of tumor=width^2×length×0.52. [Equation 2]
Wherein, ‘width’ is the shortest diameter.

The mark [7] stands for this setting: various concentrations, vitronectin 5 μg/ml.

B1: fas-1 domain: recombinant protein containing the fourth fas-1 domain of human βig-h3 (SEQ ID NO: 64) (protein, listed as Homo sapiens)
chain: MGTVMDVLKGDNRFSMLVAAIQSAGLTETLNREGVYTVFAPTNEAFRALPPRERSRLLGDAKELANILKYHIGDEILVSGGIGALVRLKSLQGDKLEVSLKNNVVSVNKEPVAEPDIMATNGVVHVITNVL
Regarding B1, the entries for the “inhibition of adhesion to vitronectin” value in test [1] (500 nM) and in test [1] (setting [7]) were “ineffective” and “dose-dependent inhibition”, respectively. Also, the caspase-3 activity in test [2] (5 μM) turned out to be 300 AU; in test [2] (20 μM), 600 AU. Moreover, in test [3], the “inhibition of proliferation of endothelial cells” value is given as “inhibited by fas-1 domain in a dose-dependent manner”. For the same molecule, the “70%-inhibition of tube formation observed at” value in test [4] worked out at 5 µM. Further, the “inhibition of tube formation” value in test [4] is recorded as “dose-dependent inhibition”. In test [5], the IC50 was determined as 5000 nM. Also, in test [5], the “inhibition of migration to vitronectin” value was “dose-dependent inhibition”. Further, the “tumor growth inhibition compared with control” value in test [6] (5 μM (10 mg/kg)) is recorded as “equivalent levels of tumor growth inhibition”.

B2: truncated βig-h3: recombinant human βig-h3 with EMI domain, all four fas-1 domains and RGD motif; residues 68-653 of SEQ ID NO: 1 (SEQ ID NO: 66) (protein, listed as Homo sapiens)
chain: WYQRKICGKSTVISYECCPGYEKVPGEKGCPAALPLSNLYETLGVVGSTTTQLYTDRTEKLRPEMEGPGSFTIFAPSNEAWASLPAEVLDSLVSNVNIELLNALRYHMVGRRVLTDELKHGMTLTSMYQNSNIQIHHYPNGIVTVNCARLLKADHHATNGVVHLIDKVISTITNNIQQIIEIEDTFETLRAAVAASGLNTMLEGNGQYTLLAPTNEAFEKIPSETLNRILGDPEALRDLLNNHILKSAMCAEAIVAGLSVETLEGTTLEVGCSGDMLTINGKAIISNKDILATNGVIHYIDELLIPDSAKTLFELAAESDVSTAIDLFRQAGLGNHLSGSERLTLLAPLNSVFKDGTPPIDAHTRNLLRNHIIKDQLASKYLYHGQTLETLGGKKLRVFVYRNSLCIENSCIAAHDKRGRYGTLFTMDRVLTPPMGTVMDVLKGDNRFSMLVAAIQSAGLTETLNREGVYTVFAPTNEAFRALPPRERSRLLGDAKELANILKYHIGDEILVSGGIGALVRLKSLQGDKLEVSLKNNVVSVNKEPVAEPDIMATNGVVHVITNVLQPPANRPQERGDELADSALEI
Take B2: the “inhibition of adhesion to vitronectin” value in test [1] (500, 50 and 10 nM) is listed as “clear dose-response effect”. For the same molecule, in test [1] (setting [7]), the “inhibition of adhesion to vitronectin” value was “dose-dependent inhibition”. In addition, in test [4], the “70%-inhibition of tube formation observed at” value was found to be 0.05 µM and the “inhibition of tube formation” value was “dose-dependent inhibition”. The “inhibition of migration of endothelial cells to vitronectin” value in test [5] (500 nM) is “strongly suppressed”. Besides, in test [5], the IC50 amounted to 50 nM and the “inhibition of migration to vitronectin” value is “dose-dependent inhibition”. For the same molecule, the tumor growth inhibition entry in test [6] (10 nM (68 μg/kg), i.p. everyday) is “inhibitory effect of tumor growth”. Moreover, the “tumor growth inhibition compared with control” value in test [6] (50 nM (340 μg/kg)) was “equivalent levels of tumor growth inhibition”.
